Measurements taken from PMC8244335 (Current Research in Structural Biology, 2019).
Where “and” joins values, the source holds several entries; their conditions need not be identical. Equal values may be shown once.

Biological target: the molecule itself
Experiment: AUC

B1: catalytically inactive S679A mutant of Escherichia coli (strain K12) LonA protease, full length (enzyme, E. coli (strain K12), UniProt P0A9M0 1-784, looked up)
chain: MNPERSERIEIPVLPLRDVVVYPHMVIPLFVGREKSIRCLEAAMDHDKKIMLVAQKEASTDEPGVNDLFTVGTVASILQMLKLPDGTVKVLVEGLQRARISALSDNGEHFSAKAEYLESPTIDEREQEVLVRTAISQFEGYIKLNKKIPPEVLTSLNSIDDPARLADTIAAHMPLKLADKQSVLEMSDVNERLEYLMAMMESEIDLLQVEKRIRNRVKKQMEKSQREYYLNEQMKAIQKELGEMDDAPDENEALKRKIDAAKMPKEAKEKAEAELQKLKMMSPMSAEATVVRGYIDWMVQVPWNARSKVKKDLRQAQEILDTDHYGLERVKDRILEYLAVQSRVNKIKGPILCLVGPPGVGKTSLGQSIAKATGRKYVRMALGGVRDEAEIRGHRRTYIGSMPGKLIQKMAKVGVKNPLFLLDEIDKMSSDMRGDPASALLEVLDPEQNVAFSDHYLEVDYDLSDVMFVATSNSMNIPAPLLDRMEVIRLSGYTEDEKLNIAKRHLLPKQIERNALKKGELTVDDSAIIGIIRYYTREAGVRGLEREISKLCRKAVKQLLLDKSLKHIEINGDNLHDYLGVQRFDYGRADNENRVGQVTGLAWTEVGGDLLTIETACVPGKGKLTYTGSLGEVMQESIQAALTVVRARAEKLGINPDFYEKRDIHVHVPEGATPKDGPAAGIAMCTALVSCLTGNPVRADVAMTGEITLRGQVLPIGGLKEKLLAAHRGGIKTVLIPFENKRDLEEIPDNVIADLDIHPVKRIEEVLTLALQNEPSGMQVVTAK
stoichiometry N: 12 and 6
